Consider 4 molecules from paper PMC11189300 (2024).

The chains are these.
B4: Mis12 complex (Mis12C), full length: MIS12, PMF1, NSL1, DSN1 (complex)
chain 1: MSVDPMTYEAQFFGFTPQTCMLRIYIAFQDYLFEVMQAVEQVILKKLDGIPDCDISPVQIRKCTEKFLCFMKGHFDNLFSKMEQLFLQLILRIPSNILLPEDKCKETPYSEEDFQHLQKEIEQLQEKYKTELCTKQALLAELEEQKIVQAKLKQTLTFFDELHNVGRDHGTSDFRESLVSLVQNSRKLQNIRDNVEKESKRLKIS
chain 2: MAEASSANLGSGCEEKRHEGSSSESVPPGTTISRVKLLDTMVDTFLQKLVAAGSYQRFTDCYKCFYQLQPAMTQQIYDKFIAQLQTSIREEISDIKEEGNLEAVLNALDKIVEEGKVRKEPAWRPSGIPEKDLHSVMAPYFLQQRDTLRRHVQKQEAENQQLADAVLAGRRQVEELQLQVQAQQQAWQALHREQRELVAVLREPE
chain 3: MAGSPELVVLDPPWDKELAAGTESQALVSATPREDFRVRCTSKRAVTEMLQLCGRFVQKLGDALPEEIREPALRDAQWTFESAVQENISINGQAWQEASDNCFMDSDIKVLEDQFDEIIVDIATKRKQYPRKILECVIKTIKAKQEILKQYHPVVHPLDLKYDPDPAPHMENLKCRGETVAKEISEAMKSLPALIEQGEGFSQVLRMQPVIHLQRIHQEVFSSCHRKPDAKPENFITQIETTPTETASRKTSDMVLKRKQTKDCPQRKWYPLRPKKINLDT
chain 4: MTSVTRSEIIDEKGPVMSKTHDHQLESSLSPVEVFAKTSASLEMNQGVSEERIHLGSSPKKGGNCDLSHQERLQSKSLHLSPQEQSASYQDRRQSWRRASMKETNRRKSLHPIHQGITELSRSISVDLAESKRLGCLLLSSFQFSIQKLEPFLRDTKGFSLESFRAKASSLSEELKHFADGLETDGTLQKCFEDSNGKASDFSLEASVAEMKEYITKFSLERQTWDQLLLHYQQEAKEILSRGSTEAKITEVKVEPMTYLGSSQNEVLNTKPDYQKILQNQSKVFDCMELVMDELQGSVKQLQAFMDESTQCFQKVSVQLGKRSMQQLDPSPARKLLKLQLQNPPAIHGSGSGSCQ

One assay has as its target Mis12C^M1 (human, UniProt Q9H081 1-205; Q6P1K2 1-205; Q96IY1 1-281; Q9H410 1-356). Put plainly: ITC.
For a further assay, the target named is Mis12C^M2 (human, UniProt Q9H081 1-205; Q6P1K2 1-205; Q96IY1 1-281; Q9H410 1-356). Briefly: ITC. For orientation: In ITC the heat of successive injections is recorded.
The target of assay [1] is B4. Put plainly: BLI. On the technique in general: BLI is a label-free optical method that tracks binding on a fibre tip over time.
Assay [2] concerns the target T1, KNL1 (construct of the BLI titrations with ZWINT) (human, UniProt Q8NG31).
T1 chain: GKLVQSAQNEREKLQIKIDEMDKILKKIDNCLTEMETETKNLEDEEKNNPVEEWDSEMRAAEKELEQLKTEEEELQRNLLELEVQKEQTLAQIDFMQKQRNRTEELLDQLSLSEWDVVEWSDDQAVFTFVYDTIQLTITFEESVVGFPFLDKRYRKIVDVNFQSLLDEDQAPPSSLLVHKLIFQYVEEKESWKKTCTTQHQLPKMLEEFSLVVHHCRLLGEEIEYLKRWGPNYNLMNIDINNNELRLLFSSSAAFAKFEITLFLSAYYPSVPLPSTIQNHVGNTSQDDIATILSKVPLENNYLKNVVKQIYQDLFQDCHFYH
Briefly: BLI; Kd2 (second site).

Assay [3] concerns the target T1, KNL1 (construct of the BLI titrations …). Put plainly: BLI; Kd1.
The target in assay [4] is T2, Mis12C with KNL1_(2,026–2,342) bound (human, UniProt Q9H081 1-205; Q6P1K2 1-205; Q96IY1 1-281; Q9H410 1-356; Q8NG31 2026-2342).
T2 chain 1: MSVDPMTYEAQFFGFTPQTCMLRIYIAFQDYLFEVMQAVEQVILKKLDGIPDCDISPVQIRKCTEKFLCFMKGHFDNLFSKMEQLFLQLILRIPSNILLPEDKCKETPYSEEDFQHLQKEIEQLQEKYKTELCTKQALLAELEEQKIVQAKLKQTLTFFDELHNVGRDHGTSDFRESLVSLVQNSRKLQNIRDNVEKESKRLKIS
T2 chain 2: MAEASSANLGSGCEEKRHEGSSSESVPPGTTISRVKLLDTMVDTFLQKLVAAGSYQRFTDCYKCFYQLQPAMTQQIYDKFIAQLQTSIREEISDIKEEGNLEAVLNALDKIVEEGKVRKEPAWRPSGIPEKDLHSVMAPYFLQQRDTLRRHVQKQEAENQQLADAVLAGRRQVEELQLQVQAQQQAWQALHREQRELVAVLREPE
T2 chain 3: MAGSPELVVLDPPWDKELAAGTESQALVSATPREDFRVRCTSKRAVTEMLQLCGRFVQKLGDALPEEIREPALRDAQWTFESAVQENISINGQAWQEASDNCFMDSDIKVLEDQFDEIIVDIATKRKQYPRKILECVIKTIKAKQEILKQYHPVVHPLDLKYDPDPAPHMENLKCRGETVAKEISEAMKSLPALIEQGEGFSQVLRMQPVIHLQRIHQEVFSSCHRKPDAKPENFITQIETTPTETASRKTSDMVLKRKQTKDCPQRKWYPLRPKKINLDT
T2 chain 4: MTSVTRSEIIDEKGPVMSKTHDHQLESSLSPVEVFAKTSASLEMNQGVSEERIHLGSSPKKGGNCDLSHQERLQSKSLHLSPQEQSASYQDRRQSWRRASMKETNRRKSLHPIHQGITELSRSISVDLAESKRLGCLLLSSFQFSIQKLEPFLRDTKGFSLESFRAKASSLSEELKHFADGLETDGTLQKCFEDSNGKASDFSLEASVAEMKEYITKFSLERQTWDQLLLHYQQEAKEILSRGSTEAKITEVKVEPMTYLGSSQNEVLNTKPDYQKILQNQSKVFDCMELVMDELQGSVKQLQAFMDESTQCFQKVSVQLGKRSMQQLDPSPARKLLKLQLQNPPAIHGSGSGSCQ
T2 chain 5: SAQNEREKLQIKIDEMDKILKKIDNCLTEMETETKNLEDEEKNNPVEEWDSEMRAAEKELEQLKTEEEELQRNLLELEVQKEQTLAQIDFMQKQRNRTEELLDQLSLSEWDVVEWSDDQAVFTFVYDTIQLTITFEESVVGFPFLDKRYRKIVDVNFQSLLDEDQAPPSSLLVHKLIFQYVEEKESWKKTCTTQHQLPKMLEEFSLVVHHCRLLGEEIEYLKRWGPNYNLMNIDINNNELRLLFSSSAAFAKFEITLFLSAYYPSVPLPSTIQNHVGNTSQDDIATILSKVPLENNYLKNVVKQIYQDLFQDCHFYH
Put plainly: BLI.

Assay [5] deals with T2, Mis12C with KNL1_(2,026–2,342) bound. Put plainly: BLI.
Another assay concerns the target SPC24^Y138A/SPC25 (human, UniProt Q8NBT2 1-197; Q9HBM1 1-224, Y138A). Put plainly: ITC.
A further assay has as its target SPC24/SPC25^L154A-L176A (human, UniProt Q8NBT2 1-197; Q9HBM1 1-224, L154A | L176A). Briefly: ITC.
The target of the next assay is KNL1^M1 (human, UniProt Q8NG31). Put plainly: ITC.
Another assay has as its target KNL1^M2 (human, UniProt Q8NG31). Put plainly: ITC.

B1: KNL1 residues 2,026–2,342 (domain or fragment)
chain: SAQNEREKLQIKIDEMDKILKKIDNCLTEMETETKNLEDEEKNNPVEEWDSEMRAAEKELEQLKTEEEELQRNLLELEVQKEQTLAQIDFMQKQRNRTEELLDQLSLSEWDVVEWSDDQAVFTFVYDTIQLTITFEESVVGFPFLDKRYRKIVDVNFQSLLDEDQAPPSSLLVHKLIFQYVEEKESWKKTCTTQHQLPKMLEEFSLVVHHCRLLGEEIEYLKRWGPNYNLMNIDINNNELRLLFSSSAAFAKFEITLFLSAYYPSVPLPSTIQNHVGNTSQDDIATILSKVPLENNYLKNVVKQIYQDLFQDCHFYH
For orientation: Kd means the free concentration of one partner at which half of the binding sites on the other are occupied at equilibrium, for simple one-to-one binding. A word on the koff: it is the rate constant with which the complex falls apart. Lower therefore signals a long-lived complex. As to B1, the Kd in the assay with Mis12C^M1 came to 45.2 nM; with Mis12C^M2, 24.8 nM. Further, the koff in assay [1] amounted to 0.000451 s⁻¹.

B2: ZWINT (natural protein)
chain: MEAAETEAEAAALEVLAEVAGILEPVGLQEEAELPAKILVEFVVDSQKKDKLLCSQLQVADFLQNILAQEDTAKGLDPLASEDTSRQKAIAAKEQWKELKATYREHVEAIKIGLTKALTQMEEAQRKRTQLREAFEQLQAKKQMAMEKRRAVQNQWQLQQEKHLQHLAEVSAEVRERKTGTQQELDRVFQKLGNLKQQAEQERDKLQRYQTFLQLLYTLQGKLLFPEAEAEAENLPDDKPQQPTRPQEQSTGDTMGRDPGVSFKAVGLQPAGDVNLP
For B2, the figures for the Kd in [2] and in assay [3] were 65.3 nM and 81.8 nM, respectively.

B3: Ndc80 complex (Ndc80C): NDC80^HEC1, NUF2, SPC24, SPC25 (complex)
chain 1: MKRSSVSSGGAGRLSMQELRSQDVNKQGLYTPQTKEKPTFGKLSINKPTSERKVSLFGKRTSGHGSRNSQLGIFSSSEKIKDPRPLNDKAFIQQCIRQLCEFLTENGYAHNVSMKSLQAPSVKDFLKIFTFLYGFLCPSYELPDTKFEEEVPRIFKDLGYPFALSKSSMYTVGAPHTWPHIVAALVWLIDCIKIHTAMKESSPLFDDGQPWGEETEDGIMHNKLFLDYTIKCYESFMSGADSFDEMNAELQSKLKDLFNVDAFKLESLEAKNRALNEQIARLEQEREKEPNRLESLRKLKASLQGDVQKYQAYMSNLESHSAILDQKLNGLNEEIARVELECETIKQENTRLQNIIDNQKYSVADIERINHERNELQQTINKLTKDLEAEQQKLWNEELKYARGKEAIETQLAEYHKLARKLKLIPKGAENSKGYDFEIKFNPEAGANCLVKYRAQVYVPLKELLNETEEEINKALNKKMGLEDTLEQLNAMITESKRSVRTLKEEVQKLDDLYQQKIKEAEEEDEKCASELESLEKHKHLLESTVNQGLSEAMNELDAVQREYQLVVQTTTEERRKVGNNLQRLLEMVATHVGSVEKHLEEQIAKVDREYEECMSEDLSENIKEIRDKYEKKATLIKSSEE
chain 2: METLSFPRYNVAEIVIHIRNKILTGADGKNLTKNDLYPNPKPEVLHMIYMRALQIVYGIRLEHFYMMPVNSEVMYPHLMEGFLPFSNLVTHLDSFLPICRVNDFETADILCPKAKRTSRFLSGIINFIHFREACRETYMEFLWQYKSSADKMQQLNAAHQEALMKLERLDSVPVEEQEEFKQLSDGIQELQQSLNQDFHQKTIVLQEGNSQKKSNISEKTKRLNELKLSVVSLKEIQESLKTKIVDSPEKLKNYKEKMKDTVQKLKNARQEVVEKYEIYGDSVDCLPSCQLEVQLYQKKIQDLSDNREKLASILKESLNLEDQIESDESELKKLKTEENSFKRLMIVKKEKLATAQFKINKKHEDVKQYKRTVIEDCNKVQEKRGAVYERVTTINQEIQKIKLGIQQLKDAAEREKLKSQEIFLNLKTALEKYHDGIEKAAEDSYAKIDEKTAELKRKMFKMST
chain 3: MAAFRDIEEVSQGLLSLLGANRAEAQQRRLLGRHEQVVERLLETQDGAEKQLREILTMEKEVAQSLLNAKEQVHQGGVELQQLEAGLQEAGEEDTRLKASLLQLTRELEELKEIEADLERQEKEVDEDTTVTIPSAVYVAQLYHQVSKIEWDYECEPGMVKGIHHGPSVAQPIHLDSTQLSRKFISDYLWSLVDTEW
chain 4: MVEDELALFDKSINEFWNKFKSTDTSCQMAGLRDTYKDSIKAFAEKLSVKLKEEERMVEMFLEYQNQISRQNKLIQEKKDNLLKLIAEVKGKKQELEVLTANIQDLKEEYSRKKETISTANKANAERLKRLQKSADLYKDRLGLEIRKIYGEKLQFIFTNIDPKNPESPFMFSLHLNEARDYEVSDSAPHLEGLAEFQENVRKTNNFSAFLANVRKAFTATVYN
Consider B3, for which the koff turned out to be 0.00024 s⁻¹ in [4] and 0.000582 s⁻¹ in assay [1]. The molecule further yielded a Kd in assay [5] of 1.15 nM.
For B4, the Kd with SPC24^Y138A/SPC25 came to 295 nM; with SPC24/SPC25^L154A-L176A it was 1270 nM; in the assay with KNL1^M1 it was 140 nM; with KNL1^M2 it was 109 nM.
